Experimental data reported in patent US20080267949A1, “Peptides capable of binding to serum proteins” (Ablynx N.V., priority 2006, published 2008).
Bridge positions count the residues as written; N and C are the ends. Ends that are not written are not given here.

Legend:
[1] = biological target: T1, human serum albumin (HSA) (Homo sapiens, UniProt P02768); experiment: Phage binding assay: peptide expressed on pIII of M13 phage, on coated HSA (anti-M13 detection, Odyssey read-out); details: for Binding to HSA (Example 4): 1/2 dilution series starting with 7.5×10^11 phages/mL; for Binding to HSA (Example 5, cross-reactivity): different phage concentrations; for Binding to HSA (Example 7, VHH fusions on phage): 1/2 dilution series starting with 10^12 phages/mL
T1 construct: purchased Sigma A5763
Method: (§1) After two selection rounds, monoclonal phage were screened for binding on HSA versus negative control antigen, ovalbumin (A5378, Sigma). Wells of a Maxisorp microtiter plate (Nunc) were coated using 10 μg/mL HSA or ovalbumin and blocked with SuperBlock T20 PBS Blocking Buffer (Pierce) to prevent non-specific binding. Phages, produced in 96-well plate, were diluted 1/10 in 1:1 (v:v) Superblock T20 PBS Blocking Buffer:PBS+0.05% Tween-20 and incubated on both HSA and ovalbumin. Bound phages were detected using anti-M13 (GE Healthcare) and goat anti-mouse IRDye700 (Rockland) and signals were read-out on Odyssey (LI-COR Biosciences). […] Both ‘hits’ were selected from the same library, i.e. originating from llama 117 in the non-constrained format. […] This peptide is referred to as 17D12. Its full amino acid sequence is given in SEQ ID NO: 1, and its encoding nucleotide sequence is given in SEQ ID NO:2. The amino acid sequence of the CDR3 loop is given in SEQ ID NO:3.
(§2) The phage binding assay was performed essentially as described in example 3. Phages, produced in 10 mL culture volume, were incubated on both HSA and ovalbumin in a ½ dilution series, starting with 7.5×10^11 phages/mL. […] Non-specific binding to ovalbumin is slightly higher for the constrained truncated peptide.
(§3) Binding of 17D12, as selected from primary screening after 2 selection rounds on HSA, to serum albumin of different species [mouse serum albumin (MSA, A3559, Sigma), cynomolgus serum albumin (CSA, in-house production), bovine serum albumin (BSA, A6003, Sigma) and HSA] and to negative control antigens [ovalbumin, human tumor necrosis factor α (TNF, in-house production)] was assessed using different phage concentrations. Additionally, similar binding studies were performed with two truncated variants of 17D12. Both peptides, i.e. 17D12-CDR3-NC (SEQ ID NO: 26) and 17D12-CDR3-C (SEQ ID NO;27), lack the flanking FR residues of 17D12 and the former is a non-constrained loop, whereas the latter is constrained (FIG. 4).
(§4) The phage binding assay was performed essentially as described in example 4.
(§5) The phage binding assay to HSA and ovalbumin was performed essentially as described in example 4. Phages, produced in 10 mL culture volume, were incubated on both HSA and ovalbumin in a ½ dilution series, starting with 10^12 phages/mL.

[2] = biological target: T2, mouse serum albumin (MSA) (Mus musculus, UniProt P07724); experiment: Phage binding assay, cross-reactivity to mouse serum albumin; details: different phage concentrations
T2 construct: purchased Sigma A3559
Method: as §1, §3, §4

[3] = biological target: T3, human tumor necrosis factor α (TNF) (Homo sapiens, UniProt P01375); experiment: Phage binding assay, specificity against negative control antigen TNF; details: different phage concentrations
T3 construct: made in house
Method: as §1, §3, §4

[4] = biological target: T4, bovine serum albumin (BSA) (Bos taurus, UniProt P02769); experiment: Phage binding assay, cross-reactivity to bovine serum albumin; details: different phage concentrations
T4 construct: purchased Sigma A6003
Method: as §1, §3, §4

ovalbumin = biological target: T5, ovalbumin (Gallus gallus, UniProt P01012); experiment: Phage binding assay on coated negative control antigen ovalbumin; details: for Binding to negative control ovalbumin (Example 4): 1/2 dilution series starting with 7.5×10^11 phages/mL; for Non-specific binding to irrelevant protein ovalbumin (Example 5): different phage concentrations; for Binding to negative control ovalbumin (Example 7): 1/2 dilution series starting with 10^12 phages/mL
T5 construct: purchased Sigma A5378
T5 sequence (P01012 1-386): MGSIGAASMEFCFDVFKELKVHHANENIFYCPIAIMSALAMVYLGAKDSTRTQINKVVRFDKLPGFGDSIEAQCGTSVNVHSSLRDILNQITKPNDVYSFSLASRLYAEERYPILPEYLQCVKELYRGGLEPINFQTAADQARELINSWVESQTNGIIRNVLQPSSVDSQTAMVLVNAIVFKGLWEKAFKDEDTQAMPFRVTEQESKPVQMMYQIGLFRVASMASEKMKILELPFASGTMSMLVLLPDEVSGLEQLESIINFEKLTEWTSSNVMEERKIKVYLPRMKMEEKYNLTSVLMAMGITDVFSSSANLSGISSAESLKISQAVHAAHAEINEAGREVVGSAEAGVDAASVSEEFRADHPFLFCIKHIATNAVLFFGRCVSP
Method: as §1, §2, §3, §4, §5

[5] = biological target: T6, cynomolgus serum albumin (CSA) (Macaca fascicularis, UniProt A2V9Z4); experiment: Phage binding assay, cross-reactivity to cynomolgus serum albumin; details: different phage concentrations
T6 construct: made in house
Method: as §1, §3, §4

cynomolgus serum albumin = biological target: T7, cynomolgus serum albumin (cynomolgus, UniProt A2V9Z4 25-608); experiment: phage binding assay on coated Maxisorp wells, 5 phage dilutions per peptide (concentrations not given), Odyssey image
T7 construct: also called CSA; cynoSA
Method: as §3
(§6) The phage binding assay was performed essentially as described in example 4. Full length 17D12 peptide as well as truncated peptides, 17D12-CDR3-NC and 17D12-CDR3-C, bind dose-dependently to HSA and CSA, whereas reactivity to MSA and BSA was not apparent in the assay performed (FIG. 6). There is no significant non-specific binding of 17D12 and 17D12-CDR3-NC to irrelevant proteins tested (ovalbumin and TNF). In contrast, there is a subtle degree of non-specific binding with the constrained truncated peptide.

mouse serum albumin = biological target: T8, mouse serum albumin (mouse, UniProt P07724 25-608); experiment: phage binding assay on coated Maxisorp wells, 5 phage dilutions per peptide, Odyssey image
T8 construct: also called MSA
Method: as §3, §6

bovine serum albumin = biological target: T9, bovine serum albumin (bovine, UniProt P02769 25-607); experiment: as above
T9 construct: also called BSA
Method: as §3, §6

human serum albumin = biological target: T10, human serum albumin (human, UniProt P02768 25-609); experiment: phage binding assay: 10 µg/mL HSA coated on Maxisorp, M13 phage displaying the peptide on pIII in 1/2 dilution series, anti-M13 + goat anti-mouse IRDye700, Odyssey intensity
T10 construct: Bought protein; also called HSA
Method: After two selection rounds, monoclonal phage were screened for binding on HSA versus negative control antigen, ovalbumin (A5378, Sigma). Wells of a Maxisorp microtiter plate (Nunc) were coated using 10 μg/mL HSA or ovalbumin and blocked with SuperBlock T20 PBS Blocking Buffer (Pierce) to prevent non-specific binding. Phages, produced in 96-well plate, were diluted 1/10 in 1:1 (v:v) Superblock T20 PBS Blocking Buffer:PBS+0.05% Tween-20 and incubated on both HSA and ovalbumin. Bound phages were detected using anti-M13 (GE Healthcare) and goat anti-mouse IRDye700 (Rockland) and signals were read-out on Odyssey (LI-COR Biosciences). […] This peptide is referred to as 17D12. Its full amino acid sequence is given in SEQ ID NO: 1, and its encoding nucleotide sequence is given in SEQ ID NO:2. The amino acid sequence of the CDR3 loop is given in SEQ ID NO:3.
as §2, with “7.5×10¹¹” for “7.5×10^11”

[6] = biological target: T11, ovalbumin (negative control antigen) (UniProt P01012 2-386); experiment: phage binding assay: ovalbumin coated on Maxisorp, M13 phage in 1/2 dilution series from 10^12 phages/mL, Odyssey intensity
T11 construct: Bought protein
T11 sequence (looked up): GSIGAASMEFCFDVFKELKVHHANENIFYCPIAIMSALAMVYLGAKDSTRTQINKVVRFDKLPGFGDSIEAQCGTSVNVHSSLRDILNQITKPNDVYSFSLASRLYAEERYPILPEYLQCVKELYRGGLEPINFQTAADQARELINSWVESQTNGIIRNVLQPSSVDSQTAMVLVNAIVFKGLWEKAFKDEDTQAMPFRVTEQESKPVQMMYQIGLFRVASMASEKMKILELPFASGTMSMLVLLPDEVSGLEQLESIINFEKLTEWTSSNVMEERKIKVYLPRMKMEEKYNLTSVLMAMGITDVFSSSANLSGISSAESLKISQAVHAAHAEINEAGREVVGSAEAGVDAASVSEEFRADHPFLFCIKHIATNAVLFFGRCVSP
Method: The phage binding assay to HSA and ovalbumin was performed essentially as described in example 4. Phages, produced in 10 mL culture volume, were incubated on both HSA and ovalbumin in a ½ dilution series, starting with 10¹² phages/mL. Dose-dependent binding to HSA was retained upon fusion of the peptide 17D12 at the C-terminus of a non-albumin binding intact VHH in the presence or absence of a GlySer linker (FIG. 9).

T2 sequence (P07724 25-608): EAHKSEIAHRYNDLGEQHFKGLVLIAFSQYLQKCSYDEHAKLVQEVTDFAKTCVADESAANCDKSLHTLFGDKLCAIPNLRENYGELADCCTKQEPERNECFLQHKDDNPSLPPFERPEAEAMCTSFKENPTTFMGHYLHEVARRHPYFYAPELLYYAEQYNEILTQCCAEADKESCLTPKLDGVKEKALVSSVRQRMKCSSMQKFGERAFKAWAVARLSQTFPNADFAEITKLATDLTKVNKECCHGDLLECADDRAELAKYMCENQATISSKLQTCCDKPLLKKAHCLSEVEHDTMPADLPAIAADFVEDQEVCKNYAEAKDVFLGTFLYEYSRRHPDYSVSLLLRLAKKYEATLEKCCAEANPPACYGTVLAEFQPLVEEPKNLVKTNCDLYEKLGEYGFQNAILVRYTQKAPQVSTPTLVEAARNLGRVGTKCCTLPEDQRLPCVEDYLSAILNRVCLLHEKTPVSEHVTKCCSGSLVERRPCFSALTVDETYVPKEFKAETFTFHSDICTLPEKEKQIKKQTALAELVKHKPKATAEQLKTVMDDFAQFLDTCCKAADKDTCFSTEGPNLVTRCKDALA
T3 sequence (P01375 77-233 limits assumed): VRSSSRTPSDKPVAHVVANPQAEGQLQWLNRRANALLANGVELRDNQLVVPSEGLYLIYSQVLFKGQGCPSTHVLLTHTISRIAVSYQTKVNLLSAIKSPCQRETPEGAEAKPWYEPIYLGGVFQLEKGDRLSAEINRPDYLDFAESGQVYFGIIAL
T4 sequence (P02769 25-607): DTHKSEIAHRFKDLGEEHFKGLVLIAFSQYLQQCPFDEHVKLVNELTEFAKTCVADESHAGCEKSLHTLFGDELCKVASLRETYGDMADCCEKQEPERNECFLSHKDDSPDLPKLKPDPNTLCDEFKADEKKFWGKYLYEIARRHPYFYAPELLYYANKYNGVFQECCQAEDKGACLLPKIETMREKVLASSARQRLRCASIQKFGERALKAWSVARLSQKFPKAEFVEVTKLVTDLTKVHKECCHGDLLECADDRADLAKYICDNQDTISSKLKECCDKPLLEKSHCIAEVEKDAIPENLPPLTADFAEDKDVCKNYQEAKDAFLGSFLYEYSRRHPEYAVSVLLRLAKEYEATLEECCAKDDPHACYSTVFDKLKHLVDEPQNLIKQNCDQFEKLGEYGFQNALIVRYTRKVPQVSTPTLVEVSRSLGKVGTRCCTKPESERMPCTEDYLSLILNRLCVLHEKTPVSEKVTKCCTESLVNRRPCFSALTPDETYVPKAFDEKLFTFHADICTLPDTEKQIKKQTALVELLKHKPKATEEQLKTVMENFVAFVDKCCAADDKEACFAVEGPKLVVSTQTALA
T6 sequence (A2V9Z4 25-608): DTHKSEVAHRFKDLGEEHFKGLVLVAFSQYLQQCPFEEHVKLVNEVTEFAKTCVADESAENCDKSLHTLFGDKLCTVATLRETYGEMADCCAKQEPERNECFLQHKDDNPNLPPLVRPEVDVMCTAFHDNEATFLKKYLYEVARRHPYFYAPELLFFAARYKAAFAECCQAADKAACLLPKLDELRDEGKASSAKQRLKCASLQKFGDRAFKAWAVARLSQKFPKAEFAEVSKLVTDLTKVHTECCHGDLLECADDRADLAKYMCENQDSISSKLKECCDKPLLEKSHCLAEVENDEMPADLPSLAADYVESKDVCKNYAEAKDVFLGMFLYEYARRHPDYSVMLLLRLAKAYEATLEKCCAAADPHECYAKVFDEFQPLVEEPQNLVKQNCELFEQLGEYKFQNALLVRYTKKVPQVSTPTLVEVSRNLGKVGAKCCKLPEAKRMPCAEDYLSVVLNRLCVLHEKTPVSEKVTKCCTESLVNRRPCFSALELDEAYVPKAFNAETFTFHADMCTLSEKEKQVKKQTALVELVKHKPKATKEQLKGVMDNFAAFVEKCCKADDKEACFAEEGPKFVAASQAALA
T8 sequence (P07724 25-608 limits assumed): as the sequence (P07724 25-608) above
T9 sequence (P02769 25-607 limits assumed): as the sequence (P02769 25-607) above
T7 sequence (A2V9Z4 25-608 limits assumed): as the sequence (A2V9Z4 25-608) above

caaasysdydvfgggtdfgpac (CAAASYSDYDVFGGGTDFGPAC; disulfide 1-22 (inferred); also: displayed on M13 phage pIII) [17D12-CDR3-C, truncated 17D12 lacking flanking FR residues, constrained loop, on M13 phage]
Binding to HSA (Example 4) [1]: bind dose-dependently to HSA
Binding to HSA (Example 5, cross-reactivity) [1]: bind dose-dependently
Reactivity to MSA [2]: not apparent
Non-specific binding to irrelevant protein TNF [3]: subtle degree of non-specific binding
Reactivity to BSA [4]: not apparent
Binding to negative control ovalbumin (Example 4) (ovalbumin): not to negative control peptide, ovalbumin
Non-specific binding to irrelevant protein ovalbumin (Example 5) (ovalbumin): subtle degree of non-specific binding
Binding to CSA [5]: bind dose-dependently

2D3-GlySer-17D12(S): 17D12 (FR3 Cys replaced with Ser) fused at C-terminus of VHH 2D3 via Gly4Ser-Gly3Ser linker, on M13 phage (GGGGSGGGSDTAVYYSNAAASYSDYDVFGGGTDFGPWGQGTQV; not fully specified (N-terminus); also: displayed on M13 phage)
Binding to HSA (Example 7, VHH fusions on phage) [1]: bind dose-dependently to HSA
Binding to negative control ovalbumin (Example 7) (ovalbumin): not to negative control peptide, ovalbumin

2D3-17D12(S): 17D12 (FR3 Cys replaced with Ser) fused at C-terminus of VHH 2D3 without linker, on M13 phage (DTAVYYSNAAASYSDYDVFGGGTDFGPWGQGTQV; not fully specified (N-terminus); also: displayed on M13 phage)
Binding to HSA (Example 7, VHH fusions on phage) [1]: bind dose-dependently to HSA
Binding to negative control ovalbumin (Example 7) (ovalbumin): not to negative control peptide, ovalbumin

aaasysdydvfgggtdfgpa (AAASYSDYDVFGGGTDFGPA; also: displayed on M13 pIII) [17D12-CDR3-NC, truncated 17D12 lacking flanking FR residues, non-constrained loop, on M13 phage]
Binding to HSA (Example 4) [1]: bind dose-dependently to HSA
Binding to HSA (Example 5, cross-reactivity) [1]: bind dose-dependently
Reactivity to MSA [2]: not apparent
Non-specific binding to irrelevant protein TNF [3]: no significant non-specific binding
Reactivity to BSA [4]: not apparent
Binding to negative control ovalbumin (Example 4) (ovalbumin): not to negative control peptide, ovalbumin
Non-specific binding to irrelevant protein ovalbumin (Example 5) (ovalbumin): no significant non-specific binding
Binding to CSA [5]: bind dose-dependently

dtavyycnaaasysdydvfgggtdfgpwgqgtqv (DTAVYYCNAAASYSDYDVFGGGTDFGPWGQGTQV; also: displayed on M13 pIII; listed as Lama glama) [17D12]
Binding to HSA (Example 4) [1]: bind dose-dependently to HSA
Binding to HSA (Example 7, VHH fusions on phage) [1]: bind dose-dependently to HSA
Binding to HSA (Example 5, cross-reactivity) [1]: bind dose-dependently
Binding of monoclonal phage to HSA (screening) ([1]; screening after two selection rounds on HSA, phages diluted 1/10, signal/background ratio very low): bind to HSA
Reactivity to MSA [2]: not apparent
Non-specific binding to irrelevant protein TNF [3]: no significant non-specific binding
Reactivity to BSA [4]: not apparent
Binding to negative control ovalbumin (Example 4) (ovalbumin): not to negative control peptide, ovalbumin
Binding to negative control ovalbumin (Example 7) (ovalbumin): not to negative control peptide, ovalbumin
Non-specific binding to irrelevant protein ovalbumin (Example 5) (ovalbumin): no significant non-specific binding
Binding of monoclonal phage to ovalbumin (screening) (ovalbumin; screening after two selection rounds on HSA, phages diluted 1/10): not to ovalbumin
Binding to CSA [5]: bind dose-dependently

B1: 17D12-CDR3-C, constrained truncated CDR3 loop of 17D12 without flanking FR, expressed on pIII of M13 phage (peptide, not shown: large carriers)
peptide: CAAASYSDYDVFGGGTDFGPAC
modifications: disulfide 1-22; not fully specified
notes: Tested as phage; also called constrained truncated peptide
binding result (cynomolgus serum albumin): binds
binding result (mouse serum albumin): no binding
binding result (bovine serum albumin): no binding
EC50 (read off the curve) (human serum albumin): ~6e+10 phage/mL

B2: 2D3-17D12(S): 17D12 peptide (FR3 Cys replaced with Ser) fused at the C-terminus of VHH 2D3 without linker, expressed on pIII of M13 phage (other, not shown: large carriers)
chain: DTAVYYSNAAASYSDYDVFGGGTDFGPWGQGTQV
modifications: not fully specified (N-terminus); also: fused to C-terminus of VHH 2D3, displayed on M13 pIII
notes: VHH-peptide fusion tested as phage; also called VHH-17D12(S)
binding result [6]: no binding (tested: 100 x10^10 phage/mL)

B3: 2D3-GlySer-17D12(S): 17D12 peptide (FR3 Cys replaced with Ser) fused at the C-terminus of VHH 2D3 via a Gly4Ser-Gly3Ser linker, expressed on pIII of M13 phage (other, not shown: large carriers)
chain: GGGGSGGGSDTAVYYSNAAASYSDYDVFGGGTDFGPWGQGTQV
modifications: not fully specified (N-terminus); also: fused to C-terminus of VHH 2D3, displayed on M13 pIII
notes: VHH-peptide fusion tested as phage; also called VHH-GlySer-17D12(S)
binding result [6]: no binding (tested: 100 x10^10 phage/mL)
